Measurements: the supplement of paper PMC7125110
± gives the standard error. This sample holds only a part of the variants without activity.

B1: glmS ribozyme (parent)
chain: AUAAAAGCGCCAGAACUACAGAAAUGUAGUUGACGAGGAGGAGGUUUAUCGAAUUUUCGGCGGAUGCCUCCAAA

Columns and labels:
Conditions in all cases: with glucosamine-6-phosphate
[1] = variants of: B1; experiment: self-cleavage kobs at 40 uM GlcN6P; higher = faster cleavage; RNA array
In short: (§1)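 Glucosamine-6-phosphate in HEPES/KCl/Mg(OAc)2 buffer, at 40 μM to 10 mM, was flowed over barcoded ribozyme variants transcribed in situ by E. coli RNA polymerase on sequenced MiSeq chips. Tracking was through a hybridised Cy3 probe at 37 °C. kobs, kcat and KM came from exponential decay fits and weighted Michaelis–Menten fits of normalised per-tile medians.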

[2] = variants of: B1; experiment: self-cleavage kobs at 2500 uM GlcN6P; higher = faster cleavage; RNA array
In short: as §1

[3] = variants of: B1; experiment: self-cleavage kobs at 10000 uM GlcN6P; higher = faster cleavage; RNA array
In short: as §1

[4] = variants of: B1; experiment: self-cleavage kobs at 160 uM GlcN6P; higher = faster cleavage; RNA array
In short: as §1

[5] = variants of: B1; experiment: self-cleavage kobs at 640 uM GlcN6P; higher = faster cleavage; RNA array
In short: as §1

| Variant | self-cleavage kobs at 40 uM GlcN6P [1] [s⁻¹] | self-cleavage kobs at 2500 uM GlcN6P [2] [s⁻¹] | self-cleavage kobs at 10000 uM GlcN6P [3] [s⁻¹] | self-cleavage kobs at 160 uM GlcN6P [4] [s⁻¹] | self-cleavage kobs at 640 uM GlcN6P [5] [s⁻¹] |
| --- | --- | --- | --- | --- | --- |
| A14C C34A C67U | < 1e-05 | < 1e-05 | < 1e-05 |  |  |
| A14U C34G A42U U45C A53C | < 1e-05 |  | < 1e-05 |  |  |
| A14G C71G | 0.00028 ± 3.6e-05 |  | 0.00586 ± 0.0014 | 0.000718 ± 0.00016 | 0.00058 ± 7.9e-05 |
| A14G C71A | 0.000515 ± 6.3e-05 | 0.0123 ± 0.0037 |  | 0.000688 ± 0.00011 | 0.00337 ± 0.00085 |
| A14G U54C U69C | 0.000416 ± 9.9e-05 | 0.000161 ± 5.8e-05 | 0.0047 ± 0.0013 |  | 0.0011 ± 0.00044 |
| A15C G37U | < 1e-05 |  | < 1e-05 |  | < 1e-05 |
| A14U G35U G44C | < 1e-05 | < 1e-05 | < 1e-05 | < 1e-05 | < 1e-05 |
| G13U G41U U46G | < 1e-05 |  |  |  |  |
| G13U G29A G44U U55G | < 1e-05 |  | < 1e-05 |  |  |
| A12U G32U A53G | < 1e-05 | 0.000144 ± 3.6e-05 | 0.000231 ± 6.4e-05 |  |  |
| G13A A15U A33U G37U U46C U49A | < 1e-05 | < 1e-05 |  |  |  |
| G13C U31A G40U | < 1e-05 |  |  |  | < 1e-05 |
| A12U G13U G43A | < 1e-05 |  | < 1e-05 |  |  |
| G13A G59U | < 1e-05 |  |  |  |  |
| A14C U31G U47G | 0.00012 ± 1.8e-05 |  | 0.00313 ± 0.00068 |  |  |
| A14U G35U U69G | 0.000295 ± 0.00012 |  | 6.56e-05 ± 1.9e-05 |  |  |
| G13C A48C | < 1e-05 | < 1e-05 | < 1e-05 | < 1e-05 |  |
| G13C G41U C70U | < 1e-05 |  |  |  |  |
| A12U U49C | < 1e-05 | < 1e-05 |  |  |  |
| G13U G44U G51C | < 1e-05 |  |  |  |  |
| A15C G62A | < 1e-05 | < 1e-05 | < 1e-05 | < 1e-05 | < 1e-05 |
| G13U C16U C70U | 5.86e-05 ± 1.3e-05 |  | 0.00165 ± 0.00029 |  |  |
| G13A C16G A64U | < 1e-05 |  |  |  |  |
| A15G A52G C58G | < 1e-05 |  | 8.04e-05 ± 2.1e-05 |  |  |
| A12U A36G A52U C71G | < 1e-05 | < 1e-05 | < 1e-05 |  |  |
| A14U U49A | < 1e-05 |  |  | < 1e-05 | < 1e-05 |

| Variant | self-cleavage kobs at 40 uM GlcN6P [1] [s⁻¹] | self-cleavage kobs at 2500 uM GlcN6P [2] [s⁻¹] | self-cleavage kobs at 10000 uM GlcN6P [3] [s⁻¹] | self-cleavage kobs at 160 uM GlcN6P [4] [s⁻¹] | self-cleavage kobs at 640 uM GlcN6P [5] [s⁻¹] |
| --- | --- | --- | --- | --- | --- |
| A14U U54A G59C | < 1e-05 |  | < 1e-05 |  |  |
| A14G G59C | < 1e-05 |  |  |  | < 1e-05 |
| A12U C16U G62A | < 1e-05 |  |  |  |  |
| G13U U31C C50G G63U | < 1e-05 |  |  |  |  |
| G13C U57C | < 1e-05 |  |  | < 1e-05 | < 1e-05 |
| A14C A36C C61G | < 1e-05 |  |  |  |  |
| A14U C16G G32U G44A A48C C61U U69G | < 1e-05 |  |  |  |  |
| A12C C16U G41U | 6.93e-05 ± 2e-05 | 0.000447 ± 9.6e-05 | 0.000649 ± 0.00015 |  | 0.000163 ± 3.3e-05 |
| A15C G37U G40C U55G U65C U69C | < 1e-05 |  |  |  |  |
| A14U U30C G44A U46G | < 1e-05 | < 1e-05 | < 1e-05 |  | < 1e-05 |
| A14G U31A | 0.00248 ± 0.00049 | 0.0146 ± 0.006 | 0.0669 ± 0.024 | 0.0027 ± 0.00061 | 0.00935 ± 0.0021 |
| A15C G32U G40U | < 1e-05 |  | 5.23e-05 ± 1.4e-05 |  |  |
| A14U A33U C34G G35C U69A | 3.35e-05 ± 1e-05 |  | 7.09e-05 ± 1.3e-05 |  |  |
| G13A G37U A39G G41C A42C G43A | < 1e-05 |  | < 1e-05 |  |  |
| A14U G41U C68A C70U | < 1e-05 |  |  |  |  |
| G13U G35U G63C A64U | < 1e-05 |  |  |  |  |
| A15C G29C U30C U31G G38C G60A U69G | < 1e-05 |  |  |  |  |
| A14U G38A U45G G63C | < 1e-05 |  |  |  |  |
| A12U C34G G40C C50A | < 1e-05 | < 1e-05 |  | < 1e-05 | < 1e-05 |
| A12G A14G U30A U46C U49C U57C | < 1e-05 | < 1e-05 | < 1e-05 |  |  |
| A12G G40C G43C | < 1e-05 |  | < 1e-05 |  | < 1e-05 |
| A12U U55A | 0.00252 ± 0.00039 |  | 0.0587 ± 0.02 | 0.00433 ± 0.0018 | 0.0231 ± 0.0089 |
| A14G U30A A39G A53C | 9.97e-05 ± 2.6e-05 |  | 0.00799 ± 0.0023 |  |  |
| A15C A39G G40A G59C | < 1e-05 |  |  |  |  |
| G13C G44U | < 1e-05 | < 1e-05 | < 1e-05 | < 1e-05 | < 1e-05 |
| G13U A52C | < 1e-05 | < 1e-05 | < 1e-05 |  |  |
